{"source": "paper PMC4600761", "key": {"[1]": {"target": "mtq-SNAP25b (mTurquoise fused to the N terminus of synaptosomal-associated protein 25b) (mouse) (UniProt P60879)", "sequence (P60879 whole entry, the tested form may be a part)": "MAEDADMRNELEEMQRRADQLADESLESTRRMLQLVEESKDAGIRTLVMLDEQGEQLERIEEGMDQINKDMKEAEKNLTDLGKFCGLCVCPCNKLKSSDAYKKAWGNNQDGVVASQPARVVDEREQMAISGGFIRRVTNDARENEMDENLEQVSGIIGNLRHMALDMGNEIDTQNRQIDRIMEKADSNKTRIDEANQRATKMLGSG", "test": "FRET or BRET; two-photon FLIM, time-lapse (1.8 s), A1 from average lifetime (τ1 0.5 ns assumed); β cells in mouse islets stimulated with 16 mM glucose, region of 0.5 μm diameter around single exocytotic events"}, "[2]": {"target": "mtq-SNAP25b (mTurquoise fused to the N terminus of synaptosomal-associated protein 25b) (mouse) (UniProt P60879)", "test": "FRET or BRET; two-photon FLIM, A1 fraction; plasma membrane of β cells in mouse islets of Langerhans, probes by lentivirus, resting state"}, "[3]": {"target": "mtq-Syx (mTurquoise fused to the N terminus of syntaxin1A) (rat) (UniProt P32851)", "sequence (P32851 whole entry, the tested form may be a part)": "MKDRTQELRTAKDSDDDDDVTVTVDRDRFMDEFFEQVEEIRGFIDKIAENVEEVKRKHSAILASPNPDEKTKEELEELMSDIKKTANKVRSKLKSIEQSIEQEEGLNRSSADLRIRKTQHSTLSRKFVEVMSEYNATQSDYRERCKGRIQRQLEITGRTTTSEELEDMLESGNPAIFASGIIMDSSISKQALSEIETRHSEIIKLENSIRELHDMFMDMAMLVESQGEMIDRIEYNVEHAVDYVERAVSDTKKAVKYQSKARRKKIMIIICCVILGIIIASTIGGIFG", "test": "FRET or BRET; two-photon FLIM, A1 fraction; plasma membrane of β cells in mouse islets of Langerhans, probes by lentivirus, resting state"}, "[4]": {"target": "mtq-SNAP25b (mTurquoise fused to the N terminus of synaptosomal-associated protein 25b) (mouse) (UniProt P60879)", "test": "FRET or BRET"}, "[5]": {"target": "mtq-Syx (mTurquoise fused to the N terminus of syntaxin1A) (rat) (UniProt P32851)", "test": "FRET or BRET"}, "[6]": {"target": "mtq-SNAP25b (mTurquoise fused to the N terminus of synaptosomal-associated protein 25b) (mouse) (UniProt P60879)", "test": "FRET or BRET; two-photon FLIM of the mtq donor; fast decay component (A1 fraction) taken as the binding fraction of the donor; live rat cortical neurons in dissociated culture, lipofected, resting; boutons and axons"}, "[7]": {"target": "mtq-Syx (mTurquoise fused to the N terminus of syntaxin1A) (rat) (UniProt P32851)", "test": "FRET or BRET; two-photon FLIM of the mtq donor; fast decay component (A1 fraction) taken as the binding fraction of the donor; live rat cortical neurons in dissociated culture, lipofected, resting; boutons and axons"}, "[8]": {"target": "mtq-Syx (mTurquoise fused to the N terminus of syntaxin1A) (rat) (UniProt P32851)", "test": "FRET or BRET; two-photon FLIM, A1 fraction; rat cortical neurons in dissociated culture after chemical fixation and counterstaining with anti-synaptophysin antibody"}, "[9]": {"target": "mtq2-Syx (mTurquoise2 fused to the N terminus of syntaxin1A) (rat) (UniProt P32851)", "sequence (P32851 whole entry, the tested form may be a part)": "as above", "test": "FRET or BRET; two-photon FLIM, A1 fraction; Schaffer collateral boutons and axons in the CA1 region of rat hippocampal slice culture, probes by AAV1, resting"}, "[10]": {"target": "Syx-mtq2 (mTurquoise2 fused to the C terminus of syntaxin1A) (rat) (UniProt P32851)", "sequence (P32851 whole entry, the tested form may be a part)": "as above", "test": "FRET or BRET; two-photon FLIM, A1 fraction; Schaffer collateral boutons in rat hippocampal slice culture, probes by AAV1, during 300 mM sucrose stimulation"}, "[11]": {"target": "Syx-mtq (mTurquoise fused to the C terminus of syntaxin1A) (rat) (UniProt P32851)", "sequence (P32851 whole entry, the tested form may be a part)": "as above", "test": "FRET or BRET; two-photon FLIM, time-lapse (18 s accumulation); rat cortical neurons in dissociated culture during 300 mM sucrose stimulation; A1 from decay curve fitting or from average lifetime (τ1 0.5 ns assumed)"}, "[12]": {"target": "Syx-mtq (mTurquoise fused to the C terminus of syntaxin1A) (rat) (UniProt P32851)", "test": "FRET or BRET; two-photon FLIM of the mtq donor; fast decay component (A1 fraction) taken as the binding fraction of the donor; live rat cortical neurons in dissociated culture, lipofected, resting; boutons and axons"}, "[13]": {"target": "Syx-mtq2 (mTurquoise2 fused to the C terminus of syntaxin1A) (rat) (UniProt P32851)", "test": "FRET or BRET; two-photon FLIM, A1 fraction; Schaffer collateral boutons and axons in the CA1 region of rat hippocampal slice culture, probes by AAV1, resting"}}, "data": [{"substance": "Ven-VAMP2 (Venus fused to the N terminus of vesicle-associated membrane protein 2) (from UniProt P63045 1-116) (natural protein)", "values": [{"measurement": "peak A1 fraction (binding fraction) before single exocytotic events, averaged traces of 61 events, 16 mM glucose", "setting": "[1]", "value": 8.3, "unit": "%"}, {"measurement": "A1 fraction (binding fraction), plasma membrane of resting β cells", "setting": "[2]", "value": "< 2", "unit": "%"}, {"measurement": "A1 fraction (binding fraction), plasma membrane of resting β cells", "setting": "[3]", "value": "< 2", "unit": "%"}, {"measurement": "other", "setting": "[4]", "value": 14.5, "unit": "%"}, {"measurement": "other", "setting": "[5]", "value": 16.3, "unit": "%"}, {"measurement": "A1 fraction (binding fraction), axons", "setting": "[6]", "value": 22.7, "unit": "%"}, {"measurement": "A1 fraction (binding fraction), boutons", "setting": "[6]", "value": 36.7, "unit": "%"}, {"measurement": "A1 fraction (binding fraction), axons", "setting": "[7]", "value": 22.4, "unit": "%"}, {"measurement": "A1 fraction (binding fraction), boutons, live", "setting": "[7]", "value": 34.1, "unit": "%"}, {"measurement": "trans-SNARE fraction in each bouton (A1b−A1a)", "setting": "[7]", "value": 11.6, "unit": "%"}, {"measurement": "A1 fraction (binding fraction), boutons, after fixation", "setting": "[8]", "value": 33.2, "unit": "%"}, {"measurement": "A1 fraction (binding fraction), pixels in axons", "setting": "[8]", "value": 15.6, "unit": "%"}, {"measurement": "A1 fraction (binding fraction), pixels of boutons negative for synaptophysin", "setting": "[8]", "value": 17.4, "unit": "%"}, {"measurement": "A1 fraction (binding fraction), pixels of boutons positive for synaptophysin", "setting": "[8]", "value": 38.8, "unit": "%"}, {"measurement": "mean trans-SNARE fraction in boutons (A1b−A1a)", "setting": "[9]", "value": 11.9, "unit": "%"}, {"measurement": "trans-SNARE fraction in the active zone (A1s–A1a), spines with volumes >0.25", "setting": "[9]", "value": 27.7, "unit": "%"}]}, {"substance": "VAMP2-Ven (Venus fused to the C terminus of VAMP2) (from UniProt P63045 1-116) (natural protein)", "values": [{"measurement": "A1 fraction (FRET of cis-complexes), boutons, during sucrose stimulation", "setting": "[10]", "value": 13.6, "unit": "%"}, {"measurement": "increase in the A1 fraction in boutons on 300 mM sucrose (average lifetime)", "setting": "[11]", "value": 12.9, "unit": "%"}, {"measurement": "increase in the A1 fraction in boutons on 300 mM sucrose (decay curve fitting)", "setting": "[11]", "value": 11.8, "unit": "%"}, {"measurement": "A1 fraction (binding fraction, cis-complex), axons", "setting": "[12]", "value": 21.5, "unit": "%"}, {"measurement": "A1 fraction (binding fraction, cis-complex), boutons", "setting": "[12]", "value": 24.7, "unit": "%"}, {"measurement": "A1 fraction (FRET of cis-complexes), boutons, resting state", "setting": "[13]", "value": 3.7, "unit": "%"}]}]}
